System: MS2 coat protein
Assay: apparent KD of MS2 coat protein; designed switch direction (-1 OFF switch, 1 ON switch): -1; higher = weaker reporter binding
Summary of the method: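 The buffer was Tris-HCl pH 7.5 with KCl, MgCl2, BSA, DTT, tRNA and Tween-20. In it, SNAP-549-labelled MS2 coat protein was titrated in doubling steps from 0.7 or 1.5 nM to 3 µM over chip-bound RNA switches transcribed by stalled E. coli RNA polymerase on Illumina chips. Apparent KD is the per-design median over clusters of curve fits to normalised fluorescence.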

[1] = input ligand: microRNA oligo, concentration not stated
[2] = Eterna round: R95, input ligand: microRNA oligo, concentration not stated

Sequence | apparent KD of MS2 coat protein (input ligand: FMN 200 uM) [nM] | apparent KD of MS2 coat protein (input ligand: none) [nM] | also measured
GUCAUCACACAUGGGAUCAACAUGAGGAUCACCCAUGUUGCCAAGCCGUUUGCACGUCUUAUCAUACGUUUUUCGAU [Mod-Jxj] (Eterna round: R97, puzzle: Sensor, turn-off variant 1) | 90.2 | 99.8 | 
UUACCCUGAGGAUAUCCACCGUGAUACAUGAGGAUCACCCAUGUUAAUGCCUGAGUUCCCGGAGAAGGCAGAUUCC [Megrez] (Eterna round: R97, puzzle: Exclusion 5) | 35.3 | 33.4 | 
AUAUCACAUGAGGAUCACCCAUGUCAGGAUAUGAUACUAUGUACUUCGGUACAUAGUAUCAGAAGGGAUAUGAA [Ex1-3: 66] (Eterna round: R96, puzzle: Exclusion 1) | 83.3 | 40.3 | apparent KD of MS2 coat protein [1]: 29.2 nM
UACUUGUUAGGAUAUCUUACAUUUGCAUUAUAGCAACUAUUGGAGAAGGGACAUGAGGAUCACCCAUGUUUGGG [tap-tap-tappy16] (Eterna round: R97, puzzle: Exclusion 4) | 602 | 486 | 
UUGUUAUAUGUAGGAUAUGCAUAUUAUUAUUAUGCAGAAGGACAUGAGGAUCACCCAUGUAUAUUGUUGUUAUAUAUUAUAUAU [Title] (Eterna round: R96, puzzle: Exclusion NG 1) |  |  | apparent KD of MS2 coat protein [1]: 18.2 nM
CUUUUGUGAGGAUAUUAAUAGUAAGUAAAUAAAAUUAUUACUAAGAAGGCACAUGAGGAUCACCCAUGUUUCUC [EX4 #83] (Eterna round: R97, puzzle: Exclusion 4) | 76.8 | 41.8 | 
CAGUACUGAGGAUAUACAUGAGGAUCACCCAUGUCCCAAAAGUAGGAUACUACUAUUAGUAGAAGGCAGUACUG [Fiskers Ex 3 828 mod 25] (Eterna round: R96, puzzle: Exclusion 3) | 498 | 46.1 | apparent KD of MS2 coat protein [1]: 43.2 nM
CUUGUUUAUGUAGGAUAUGCCUGGCGUGCCUUUGCAGAAGGACAUGAGGAUCACCCAUGUAACAUGAGGAUCACCCAUGUCGCA [salish99_ExNG1_r04_103] (Eterna round: R96, puzzle: Exclusion NG 1) | 1190 | 854 | apparent KD of MS2 coat protein [1]: 555 nM
ACUAGCUUUUUGCAUAGUAGGUUUGGUGCUUCGUAUGCUACAUGAGGAUCACCCAUGUAUUACUGAUUUCGUCGUUU [JR_SV3TOV2_Sub093] (puzzle: Sensor v3, turn-off variant 2) |  |  | apparent KD of MS2 coat protein (Eterna round: R95, input ligand: FMN 200 uM): 24.6 nM; apparent KD of MS2 coat protein [2]: 41.1 nM; apparent KD of MS2 coat protein (Eterna round: R95, input ligand: none): 27.3 nM
UGAUUGUUUACCAGAUUAUACAUGAGGAUCACCCAUGUAGAUCCUACGUGCACGUUAUACAGCUCGUCUUAUUCCCA [Sensor-V1 #74] (Eterna round: R97, puzzle: Sensor, turn-off variant 1) | 35.4 | 36.2 | 
AAUUAAACAAGCAGAUCCCACAUGAGGAUCACCCAUGUGCUCGUCUUAUAAGGUACUGUGACGAGAGUCACGGUACC [Mat - Sensor, turn-off var - Eli Mod - D64] (Eterna round: R97, puzzle: Sensor, turn-off variant 1) | 66.4 | 47.4 | 
CCGCCAUGAGGAUAUCCAUCUGGAUCAGACAAGAUCCUGAUGGAGAAGGGACAUGAGGAUCACCCAUGUUGCGG [Mat - Exclusion 4 - Eli Mod - D55] (Eterna round: R97, puzzle: Exclusion 4) | 60.4 | 60 | 
GUUGAUGUAGGAUAUACAUGAGGAUCACCCAUGUUGGUGCCCUAACCUAUUGGUGUACGUAGAAGGGCGGACUC [Eternabot (L2) Solution 96] (Eterna round: R97, puzzle: Exclusion 3) | 103 | 95.2 | 
GGAGAGAAACAGGAUAUGGGAGGGAGGACCGGACCAGAAGGGUUGACAUGAGGAUCACCCAUGUAGAGAUCCUC [AK-MS2ROC-r4-exclusion6-6.7] (Eterna round: R97, puzzle: Exclusion 6) | 486 | 1700 | 
AAAGUGUAAGGAUAUCCGAAAAGCGAGCGAAAGCGAGCGAAGGAGAAGGUACAUGAGGAUCACCCAUGUAAGGG [AK-MS2ROC-r4-exclusion4-11.5] (Eterna round: R97, puzzle: Exclusion 4) | 215 | 961 | 
UGGGUACAUGAGGAUCACCCAUGUGAGGAUAUGCCGGAAGAAUCGCAGAAAUGAGCCAGUAGAAGGCACAAGGG [Eternabot (L2) Solution 100] (Eterna round: R97, puzzle: Exclusion 1) | 1300 | 1190 | 
GAAUGAGAGCAGGAUAUCUUAUAAGUGUAUGAAAGAGAAGGGCUCACAUGAGGAUCACCCAUGUGGUCCUAGAU [jl-ex6-4.86 jandersonlee mod] (Eterna round: R97, puzzle: Exclusion 6) | 329 | 41.7 | 

Sequence | apparent KD of MS2 coat protein (input ligand: FMN 200 uM) [nM] | apparent KD of MS2 coat protein (input ligand: none) [nM] | also measured
AGUGCGUCAGGAUAUUCUAUUAAUUACAUGAGGAUCACCCAUGUGAAUGGACAAGGGUGUGAAGAAGGGACGUGCG [Omei Ex5 A17g] (Eterna round: R97, puzzle: Exclusion 5) | 360 | 872 | 
AUUAACAUGUUGAUCAAAUACAUGAGGAUCACCCAUGUAUGCUUUUUGCUCGAUAAGAUCAACUAAUUAAUUAAUUA [StovNew/1-B] (Eterna round: R97, puzzle: Sensor, turn-off variant 1) | 13.9 | 12.6 | 
UUAACAUGCUGGUGAUCAUACAUGAGGAUCACCCAUGUAACAAGCUUUUUGUUCGUCUUAAUUUAAUUGAUUACUAG [Stov1/8-B1] (Eterna round: R97, puzzle: Sensor, turn-off variant 1) | 188 | 248 | 
GUUGGUAAGUCAGGAUAUCCCUGUAAUGGCAGCGGAGAAGGGACAUGAGGAUCACCCAUGUGAACCUCCGGCGGAUAAACCCGC [Ancelave] (Eterna round: R96, puzzle: Exclusion NG 1) | 111 | 23.6 | apparent KD of MS2 coat protein [1]: 29.5 nM
UGUAAGCUAGGAUAUGCUUUGGGAAAGCAUUCCUUCGAUAAACUUGAGGAUCACCCAAGUAGAAGGAGCUUACA [salish99_ex2_r4_005] (Eterna round: R97, puzzle: Exclusion 2) | 20.8 | 12.4 | 
UGUGUCCGGGAGGAUAUCAGAACGCUAGUGGUCUGAGAAGGCCUAACAUGAGGAUCACCCAUGUGAUUAUUUAU [Eternabot (L2) Solution 51] (Eterna round: R97, puzzle: Exclusion 6) | 93.4 | 52.5 | 
ACAGUGUUAGGAUAUCUGAGAAUUAGUCUCGACUAGUCGAAGGAGAAGGAACAUGAGGAUCACCCAUGUAGAUC [EX4 #76] (Eterna round: R97, puzzle: Exclusion 4) | 295 | 41.6 | 
AGGAAGCAAGGAUAUACGAGGAGAAGGUGGAGAGUUAAAGGACAUGAGGAUCACCCAUGUAGAAGGUGCGAGAA [JR_Exclu2_Sub045] (puzzle: Exclusion 2) |  |  | apparent KD of MS2 coat protein [2]: 52.2 nM
GGAAGGCGAGGAUAUGCAAUAAUACACUCGAAGGAGUGAUAACAUGAGGAUCACCCAUGUAGAAGGCGCGAGAA [AK-MS2ROC-r4-exclusion2-6] (Eterna round: R97, puzzle: Exclusion 2) | 36.1 | 36.1 | 
AAUAACAAGCCGAUCCUCCACAUGAGGAUCACCCAUGUGCUCGUCUUGUAAAGUACUAUCACGAAAGUGAUAGUACA (Eterna round: R97, puzzle: Sensor, turn-off variant 1) | 39.2 | 44 | 
GAAAAUGUGGAGGAUAUCGACUUCGAAAGAAGUCGAGAAGGCCACACAUGAGGAUCACCCAUGUGUGCCUUAAA [Omei Ex6 H3] (Eterna round: R97, puzzle: Exclusion 6) | 23.9 | 12 | 
GUGUAGAUAGGAUAUGCUGGAAUCUAGCGAAGCUAGGUUCCACAUGAGGAUCACCCAUGUAGAAGGGUCUACAC [Dot plot directed A v11] (puzzle: Exclusion 2) |  |  | apparent KD of MS2 coat protein [2]: 127 nM
GUGUACAGAGGAUAUAUAUGAGCUAGGAAACUAGCAAGAUCACAUGAGGAUCACCCAUGUAGAAGGCUGUACAC [Ex2: 735] (Eterna round: R96, puzzle: Exclusion 2) |  |  | apparent KD of MS2 coat protein [1]: 102 nM
AGUUGUUGUUUCCGUUCUUACAUGAGGAUCACCCAUGUUUCUUGUCGUGCUCGCGUUGCUCGUCUGGCUGCCUGUUG [salish99_TOv1_r3_069] (Eterna round: R96, puzzle: Sensor v3, turn-off variant 1) | 47 | 46.4 | apparent KD of MS2 coat protein [1]: 28 nM
AAGAAGGCAGGAUAUACAAAAUAAAAGAAAAGAAAGAAAGAACAUGAGGAUCACCCAUGUAGAAGGGUCAAGAA [Sankhenre Sewadjtu] (Eterna round: R96, puzzle: Exclusion 2) | 52.2 | 60.7 | apparent KD of MS2 coat protein [1]: 46.3 nM
GACUCUCCCGUGAGGAUAUAUGAGGCCAUGAUUCCAUAGAAGGCACAUGAGGAUCACCCAUGUCGGGCAUAGCC [Eternabot (L2) Solution 8] (Eterna round: R97, puzzle: Brourd's mod of Exclusion 4) | 25.7 | 41.3 | 
AGUGUGUGGCAGGAUAUGCGAUUUGUAAGUGUUGCAGAAGGGUCUACAUGAGGAUCACCCAUGUGUGCGGUUGA [Ex6 #13] (Eterna round: R97, puzzle: Exclusion 6) | 658 | 516 | 

Source: the supplement of paper PMC9170038
